Data: patent publication US6596500B1, “Binding of retinoids to M6P/IGF-II receptor” (The General Hospital Corporation, priority 1998, dated 2003)

Target: T1, partially purified rat M6P/IGF-II receptor (Rattus norvegicus, UniProt G3V824)
T1 construct: both intact (300 kDa) and truncated (260 kDa) forms of M6P/IGF-II receptor exist in the serum; from tissue; host or cells: neonatal rat serum, FPLC Sepharose-12 fraction
Assay: Equilibrium [3H]RA ligand-binding assay (dextran-charcoal), Scatchard analysis
Conditions: β-glucuronidase 2,500 units/ml
Description: Partially purified M6P/IGF-II receptors from neonatal rat serum was prepared using a Fast Protein Liquid Chromatography (FPLC) system equipped with a Sepharose-12 column (Pharmacia). The partially purified M6P/IGF2R protein was diluted in binding buffer (20 mM Tris-HCl, pH 8.0/150 mM NaCl/1mM DTT/protease inhibitors) at a concentration of 50 Ag/ml. […] Incubation was carried out at 22° C. for 2 h in the dark. After the incubation, 0.2 ml chilled charcoal-dextran suspension (charcoal/dextran/glycerol=0.5%/0.05%/20%) was added to remove the unbound ligand.

T1 sequence (G3V824 36-2481): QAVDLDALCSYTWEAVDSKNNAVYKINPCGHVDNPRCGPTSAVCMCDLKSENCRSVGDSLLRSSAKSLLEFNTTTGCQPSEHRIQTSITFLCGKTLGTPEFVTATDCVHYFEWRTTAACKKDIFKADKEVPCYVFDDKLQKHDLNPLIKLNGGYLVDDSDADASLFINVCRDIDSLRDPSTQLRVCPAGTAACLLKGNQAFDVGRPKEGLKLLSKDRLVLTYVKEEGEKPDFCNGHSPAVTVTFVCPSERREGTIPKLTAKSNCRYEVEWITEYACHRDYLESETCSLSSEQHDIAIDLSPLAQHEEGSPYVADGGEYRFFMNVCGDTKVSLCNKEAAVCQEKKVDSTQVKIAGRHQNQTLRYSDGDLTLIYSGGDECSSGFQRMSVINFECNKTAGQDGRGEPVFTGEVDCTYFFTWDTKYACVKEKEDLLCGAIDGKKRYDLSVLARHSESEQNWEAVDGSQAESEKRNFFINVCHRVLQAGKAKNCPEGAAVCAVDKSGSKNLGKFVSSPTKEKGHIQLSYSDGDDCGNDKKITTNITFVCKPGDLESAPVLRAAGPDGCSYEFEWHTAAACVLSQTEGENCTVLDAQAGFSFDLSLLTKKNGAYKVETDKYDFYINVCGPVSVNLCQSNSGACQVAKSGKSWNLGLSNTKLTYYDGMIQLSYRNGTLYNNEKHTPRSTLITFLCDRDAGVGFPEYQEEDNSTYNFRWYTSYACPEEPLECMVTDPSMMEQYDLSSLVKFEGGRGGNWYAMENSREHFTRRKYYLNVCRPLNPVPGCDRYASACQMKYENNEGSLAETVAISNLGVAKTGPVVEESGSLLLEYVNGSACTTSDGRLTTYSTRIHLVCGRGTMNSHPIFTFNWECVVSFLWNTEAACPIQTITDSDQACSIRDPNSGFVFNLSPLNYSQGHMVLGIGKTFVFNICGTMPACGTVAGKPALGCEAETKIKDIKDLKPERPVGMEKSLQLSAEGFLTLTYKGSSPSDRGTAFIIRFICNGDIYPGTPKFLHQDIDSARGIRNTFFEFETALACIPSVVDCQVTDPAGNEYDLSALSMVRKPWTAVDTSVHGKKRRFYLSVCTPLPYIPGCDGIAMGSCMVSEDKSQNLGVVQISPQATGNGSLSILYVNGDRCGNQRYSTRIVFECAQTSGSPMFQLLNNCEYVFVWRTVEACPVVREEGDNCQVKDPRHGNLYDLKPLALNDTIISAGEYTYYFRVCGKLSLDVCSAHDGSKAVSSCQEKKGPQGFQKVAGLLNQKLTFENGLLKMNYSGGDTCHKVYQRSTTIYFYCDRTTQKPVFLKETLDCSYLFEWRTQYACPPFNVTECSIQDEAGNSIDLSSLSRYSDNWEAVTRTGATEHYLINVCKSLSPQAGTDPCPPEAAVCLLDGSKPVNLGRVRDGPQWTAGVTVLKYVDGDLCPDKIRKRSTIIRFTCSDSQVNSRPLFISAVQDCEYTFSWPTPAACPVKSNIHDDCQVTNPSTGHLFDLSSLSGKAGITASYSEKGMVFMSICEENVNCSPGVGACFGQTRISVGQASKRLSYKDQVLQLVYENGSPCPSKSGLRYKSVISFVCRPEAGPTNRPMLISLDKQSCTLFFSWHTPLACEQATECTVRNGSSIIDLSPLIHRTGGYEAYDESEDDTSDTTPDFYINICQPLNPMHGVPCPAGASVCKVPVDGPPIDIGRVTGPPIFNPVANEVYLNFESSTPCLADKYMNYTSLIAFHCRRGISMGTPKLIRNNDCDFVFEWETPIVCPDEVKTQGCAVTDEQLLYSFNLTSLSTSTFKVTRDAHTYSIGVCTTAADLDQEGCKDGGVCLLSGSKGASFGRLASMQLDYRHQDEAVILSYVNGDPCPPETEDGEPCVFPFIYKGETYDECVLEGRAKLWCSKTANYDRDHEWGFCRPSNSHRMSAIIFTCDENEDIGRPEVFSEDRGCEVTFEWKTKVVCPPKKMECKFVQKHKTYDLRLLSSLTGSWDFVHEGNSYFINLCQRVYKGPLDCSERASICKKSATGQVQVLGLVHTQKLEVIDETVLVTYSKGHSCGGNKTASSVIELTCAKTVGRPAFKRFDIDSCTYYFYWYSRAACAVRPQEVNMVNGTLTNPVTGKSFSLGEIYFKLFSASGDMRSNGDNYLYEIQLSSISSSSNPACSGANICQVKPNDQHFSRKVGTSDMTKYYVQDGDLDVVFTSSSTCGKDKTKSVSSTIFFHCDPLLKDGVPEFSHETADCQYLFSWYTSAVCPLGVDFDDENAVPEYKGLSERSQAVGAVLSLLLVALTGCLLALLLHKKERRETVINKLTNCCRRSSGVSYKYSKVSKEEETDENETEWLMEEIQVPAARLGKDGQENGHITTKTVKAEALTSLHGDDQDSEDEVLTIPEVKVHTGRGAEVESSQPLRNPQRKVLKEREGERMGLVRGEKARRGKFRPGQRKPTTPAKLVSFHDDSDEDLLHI

B1: β-glucuronidase: M6P-containing lysosomal enzyme (protein, UniProt P08236 23-651, looked up)
Beta-glucuronidase: LQGGMLYPQESPSRECKELDGLWSFRADFSDNRRRGFEEQWYRRPLWESGPTVDMPVPSSFNDISQDWRLRHFVGWVWYEREVILPERWTQDLRTRVVLRIGSAHSYAIVWVNGVDTLEHEGGYLPFEADISNLVQVGPLPSRLRITIAINNTLTPTTLPPGTIQYLTDTSKYPKGYFVQNTYFDFFNYAGLQRSVLLYTTPTTYIDDITVTTSVEQDSGLVNYQISVKGSNLFKLEVRLLDAENKVVANGTGTQGQLKVPGVSLWWPYLMHERPAYLYSLEVQLTAQTSLGPVSDFYTLPVGIRTVAVTKSQFLINGKPFYFHGVNKHEDADIRGKGFDWPLLVKDFNLLRWLGANAFRTSHYPYAEEVMQMCDRYGIVVIDECPGVGLALPQFFNNVSLHHHMQVMEEVVRRDKNHPAVVMWSVANEPASHLESAGYYLKMVIAHTKSLDPSRPVTFVSNSNYAADKGAPYVDVICLNSYYSWYHDYGHLELIQLQLATQFENWYKKYQKPIIQSEYGAETIAGFHQDPPLMFTEEYQKSLLEQYHLGLDQKRRKYVVGELIWNFADFMTEQSPTRVLGNKKGIFTRQRQPKSAAFLLRERYWKIANETRYPHSVAKSQCLENSLFT
  Effect on [3H]RA binding to the receptor: increase [^3H]RA binding
